Laboratory results as given in patent publication US20250326842A1.
Positions count from the first letter of the chain named.

B1: BGA50 (antibody, V domains shown)
VH: EVQLQQSGPEPVKPGASVKISCKASGYSFTGYFLNWVKQSHGKSLEWIGRISPYNGDTFYNQKFKGKATLTVDKSSSTAHMELLSLTSEDSAVYYCGRSGSFTLFYAMDYWGQGTSVTVSS
VL: DIVMSQSPSSLAVSVGENITMTCKSSQSLFHSGNQKNYLAWYQQKPGQSPKLLIYWASTRESGVPDRFTGSGSETDFTLTISSVKAEDLAVYFCQQYYSYPITFGAGTKLELK
B2: BGA38 (antibody, V domains shown)
VH: EVQLQESGAEHVMPGASVKMSCKAAGYTFTDYWMYWVKQRPGQGLEWIGTIDTSDHKTSYNQKFRGKATLTVDESSSTAYMQLSSLTSEDSAVYYCARDFIITVNYPVVDYWGQGTSVTVSS
VL: QNVLTQSPAIMSASPGEKVTITCSAGSSVNYMHWFQQKPGTSPKLWIYSTSNLASGVPARFSGSGSGTSYSLTISRMEAEDAATYYCQQRSSLPFTFGSGTKLEIK
B3: BGA12 (antibody, V domains shown)
VH: QVQLQQSGPEVVRPGVSVKISCKGSGYTFTDYAMHWVKQSHGKSLEWIGVVLTHNDNTNYNQKFKAKATMTVDRSSSTAYMELARLTSEDSAIYYCAREVYYDFDDGNYFPMDYWGQGTSVTVSS
VL: DIVMSQSPSSLAVSVGEKVTMSCKSSQSLLYSDNQKNYLAWYQQKPGQSPKLLIYWASTRESGVPVRFTGSGSGTDFTLTISSVKAEDLAVYYCQQYYSYHTFGGGTKLEIK
B4: BGA86 (antibody, human IgG1, V domains shown)
VH: EVQLQESGGGSVKPGGSLQLSCAASGFTFSSYGMSWIRQSPEKKLEWVAEISSGGTYTYYPDTVTGRFTISRDNAKNTLYLEMSSLRSEDTAMYYCARGDPFGYWGQGTLVTVSA
VL: DVVMTQSHKFVSTSVGGRVSITCKASQDVMTAVAWYQQKPGQSPKLLIYSTSYRFTGVPDRFTGSGSGTDFTLTINGVQAEDLAVYSCQQHYSTPRTFGGGTKLEIK
B5: BGA501 (antibody, V domains shown)
VH: QVQLVQSGAEVKKPGASVKVSCKASGYSFTGYFLNWVRQAPGQGLEWIGRISPYQGDTFYNQKFKGRVTMTTDKSTSTAYMELRSLRSDDTAVYYCGRSGSFTLFYAIDYWGQGTLVTVSS
VL: DIVMTQSPSSLAVSLGERATINCKSSQSLFHSGNQKNYLAWYQQKPGQSPKLLIYWASTRESGVPDRFSGSGSGTDFTLTISSLQAEDVAVYYCQQYYSYPITFGQGTKLEIK
B6: BGA503 (antibody, V domains shown)
VH: B5 VH with T72V, I108L
VL: B5 VL
B7: BGA502 (antibody, V domains shown)
VH: B5 VH with I108L
VL: B5 VL
B8: BGA861 (antibody, V domains shown)
VH: EVQLVESGGGLVKPGGSLRLSCAASGFTFSSYGISWVRQAPGKGLEWVSEISSGGTYTYYPDTVTGRFTISRDNAKNTLYLQMSSLRAEDTAVYYCARGDPFGYWGQGTLVTVSS
VL: DIQMTQSPSSLSASVGDRVTITCKASQDVMTAVAWYQQKPGKAPKLLIYSTSYRFTGVPSRFSGSGSGTDFTLTISSLQPEDFATYYCQQHYSTPRTFGGGTKVEIK
B9: BGA862 (antibody, V domains shown)
VH: B8 VH with I34L
VL: B8 VL
B10: BGA381 (antibody, V domains shown)
VH: EVQLVQSGAEVKKPGASVKVSCKASGYTFTDYWIYWVRQAPGQGLEWMGTIDTSDHKTSYNQKFRGRVTMTRDTSTSTVYMELSSLRSEDTAVYYCARDFIITVNYPVVDYWGQGTLVTVSS
VL: QIVLTQSPATLSLSPGERATLSCSAGSSVNYMHWFQQKPGQAPRLLIYSTSNLASGVPARFSGSGSGTDYTLTISSLEPEDFAVYYCQQRSSLPFTFGQGTKLEIK
B11: BGA383 (antibody, V domains shown)
VH: B10 VH with H56A
VL: B10 VL
B12: BGA382 (antibody, V domains shown)
VH: B10 VH
VL: B10 VL with I2N, M32L

The binders below were run against Cyno PVRIG recombinant protein (cynomolgus monkey) (assay: ELISA, chimeric antibody on recombinant cyno PVRIG).
Chain of Cyno PVRIG recombinant protein (cynomolgus monkey) (Q6DKI7 other isoform, or with tags, fused parts or gaps limits assumed): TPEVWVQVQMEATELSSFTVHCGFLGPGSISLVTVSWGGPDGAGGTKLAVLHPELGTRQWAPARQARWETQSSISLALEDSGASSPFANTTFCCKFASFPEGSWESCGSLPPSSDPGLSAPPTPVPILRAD

Row | EC50 [nM] | Binder
1 | 0.0273 | B1
2 | 0.223 | B2
3 | 0.039 | B3
4 | 0.0449 | B4

These binders were tested against Cyno PVRIG recombinant protein (cynomolgus monkey) (assay: SPR, antibody captured via anti-human Fc, cyno PVRIG analyte).

Row | Kd [nM] | koff [s⁻¹] | kon [M⁻¹ s⁻¹] | Binder
5 | 0.347 | 0.0032 | 9.21e+06 | B1
6 | 0.0507 | 0.00021 | 4.15e+06 | B2
7 | 0.426 | 0.00267 | 6.27e+06 | B5
8 | 0.396 | 0.00294 | 7.44e+06 | B6
9 | 0.433 | 0.00266 | 6.16e+06 | B7
10 | 1.01 | 0.00221 | 2.18e+06 | B8
11 | 2.16 | 0.00483 | 2.23e+06 | B9
12 | 0.0738 | 0.000367 | 4.98e+06 | B10
13 | 0.0658 | 0.000345 | 5.25e+06 | B11
14 | 0.0518 | 0.000243 | 4.7e+06 | B12
15 | 0.552 | 0.0017 | 3.08e+06 | B4

Target: Cyno PVRIG recombinant protein (cynomolgus monkey)
Assay: as above
Remark: another data set of the same source

Row | Kd [nM] | koff [s⁻¹] | kon [M⁻¹ s⁻¹] | Binder
16 | 0.73 | 0.00588 | 8.05e+06 | B1
17 | 0.109 | 0.000157 | 1.44e+06 | B2
18 | 6.31 | 0.000354 | 56100 | B3
19 | 0.674 | 0.00133 | 1.97e+06 | B4
